No end group written: not given here.
Columns and labels:
[1] = molecular target: PSA (Homo sapiens, UniProt P07288); details: cited from earlier work; for Kcat / Km: aminomethyl coumarin labeled peptides, 50 mM Tris, 0.1 M NaCl, pH 7.8
[2] = system: mice; experiment: In vivo toxicity after single intravenous injection
Description: To determine in vivo toxicity, proaerolysin variants were administered to mice intravenously.

[3] = system: E14 mouse T-cell lymphoma cells (ATCC TIB-39); experiment: In vitro toxicity, MTS/PMS cell viability assay; type: cell-based; details: 4 hours at 37° C., 1×10^−13 M-1×10^−7M toxin, FIG. 3; read-out: LC50 (the source's name)
Description: To determine in vitro toxicity, a cell viability assay was performed as follows. E14 mouse T-cell lymphoma cells (ATCC TIB-39) were cultured at 10^+5 cells per well in MTS/PMS Cell Titer 96 (Promega). […] Cell viability was subsequently determined by reading the plate on a plate reader, as directed by the manufacturer of the MTS/PMS kit.

[4] = system: human LNCaP prostate cancer xenografts which produce PSA; experiment: Intratumoral injection into PSA-producing LNCaP xenografts; type: in vivo; details: nude mice
Description: The percent of tumor within sample was determined by calculating the ratio of viable tumor to total tumor area following image analysis of thin tumor sections.

PSA, sequence (P07288 25-261): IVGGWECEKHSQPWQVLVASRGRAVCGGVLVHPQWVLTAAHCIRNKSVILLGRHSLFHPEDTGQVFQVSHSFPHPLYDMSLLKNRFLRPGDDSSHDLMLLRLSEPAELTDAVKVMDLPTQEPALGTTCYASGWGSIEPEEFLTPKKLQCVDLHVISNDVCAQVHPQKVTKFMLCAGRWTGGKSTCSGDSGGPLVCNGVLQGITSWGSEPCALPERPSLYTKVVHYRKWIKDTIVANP

| Substance | Kcat [1] [s⁻¹] | Km [1] [µM] | efficiency and specificity of hydrolysis by PSA [1] | lethality after dose of 1 μg ([2]; intravenous, 1 μg) | LD100 at 24 hours (dose that kills 100% of animals within 24 hours) ([2]; single IV injection, total dose) [µg] | CC50 [3] [pM] | antitumor effect against LNCaP xenografts [4] |
| --- | --- | --- | --- | --- | --- | --- | --- |
| EHSSKLQ (also: fluorescently labeled (aminomethyl coumarin); listed as Homo sapiens) [EHSSKLQ (20), PSA substrate peptide] | 0.012 | 1160 | – | – | – | – | – |
| SKLQ (also: fluorescently labeled (aminomethyl coumarin); listed as Homo sapiens) [SKLQ (21), PSA substrate peptide] | 0.020 | 813 | – | – | – | – | – |
| LGGSSQL (also: fluorescently labeled (aminomethyl coumarin); listed as Homo sapiens) [LGGSSQL (19), PSA substrate peptide] | 0.0037 | 900 | not efficient, but were specifically hydrolyzed by PSA | – | – | – | – |
| KGLSSQC (also: fluorescently labeled (aminomethyl coumarin); listed as Homo sapiens) [KGLSSQC (18), PSA substrate peptide] | 0.0017 | 300 | – | – | – | – | – |
| HSSKLQ (listed as Homo Sapiens) [HSSKLQ (5), PSA substrate peptide] | 0.011 | 470 | – | – | – | – | – |
| KGISSQY (also: fluorescently labeled (aminomethyl coumarin); listed as Homo sapiens) [KGISSQY (15), PSA substrate peptide] | 0.043 | 160 | efficiently but not specifically hydrolyzed by PSA | – | – | – | – |
| ATKSKQH (also: fluorescently labeled (aminomethyl coumarin); listed as Homo sapiens) [ATKSKQH (17), PSA substrate peptide] | 0.0091 | 1310 | not efficient, but were specifically hydrolyzed by PSA | – | – | – | – |
| Wild-type proaerolysin | – | – | – | caused death within one hour | 0.1 | 150 | minimal effect |
| SRKSQQY (also: fluorescently labeled (aminomethyl coumarin); listed as Homo sapiens) [SRKSQQY (16), PSA substrate peptide] | 0.023 | 90 | efficiently but not specifically hydrolyzed by PSA | – | – | – | – |
